We go through five molecules from patent US20250018037A1 (SEOUL NATIONAL UNIVERSITY R AND DB FOUNDATION, published 2025).

No end group written: not given here.

Assay [1] has as its target T1, Biotin conjugated 6×His peptide (also: biotin conjugated, site not given here).
T1 construct: also called histidine hexamer peptide
T1 peptide: HHHHHH
Put plainly: SPR (Biacore 8K): biotin 6×His peptide captured on immobilized streptavidin, scFv injected in 2-fold dilutions (6 curves). An excerpt: Since the murine anti-His antibody had decreased binding affinity against 6×His peptide after humanization, affinity maturation was further performed to increase it and chicken anti-CD40 antibody (2B1) was only humanized. Serial dilution antibodies at 6 concentrations were used to characterize the kinetics of antibody-antigen binding by SPR. […] So, there was not affinity loss against their antigen after humanization (FIG. 22B).
A Biacore 8K SPR system (Cytiva) equipped with CM5 sensor chip (Cytiva) was used to generate binding kinetic rate and affinity constants. To prepare the capture surfaces for anti-His antibodies, streptavidin was immobilized, followed by biotin conjugated 6×His peptide was captured. The antibodies were 2-fold serial diluted with 1×PBS, then injected at a flow rate of 30 μL/min for 3 minutes, allowing 10 minutes dissociation phase. The surface was regenerated using 10 mM glycine, pH 1.5. The kinetics were analyzed using Biacore 8K evaluation software, version 1.0 (Cytiva). In case of anti-CD40 antibodies, anti-human Fc IgG (Jackson ImmunoResearch) was immobilized, and then CD40-hFc protein (Acro Biosystems, #CD0-H5253) was captured. The antibodies were 2-fold serial diluted with HBS-EP+ buffer (10 mm HEPES, 150 mm sodium chloride, 3 mm EDTA, 0.05% Polysorbate 20), then injected at a flow rate of 30 μL/min for 4 minutes, allowing >15 minutes dissociation phase.
For orientation: Surface plasmon resonance follows binding to a sensor surface in real time, without labels.

Assay [2] concerns the target T2, Human CD40 on cells (Raji, Daudi, IM-9) (human, UniProt P25942 21-277).
T2 construct: whole, on cells; also called cell surface CD40; hCD40
The assay is described as follows: flow cytometry on Raji cells, anti-Myc staining (axis Myc); number not labelled as MFI on the sheet; 2nd Ab only -30.7. In general terms: Flow cytometry measures light scatter and fluorescence of single cells or particles in a stream.

T2 sequence (P25942 21-277): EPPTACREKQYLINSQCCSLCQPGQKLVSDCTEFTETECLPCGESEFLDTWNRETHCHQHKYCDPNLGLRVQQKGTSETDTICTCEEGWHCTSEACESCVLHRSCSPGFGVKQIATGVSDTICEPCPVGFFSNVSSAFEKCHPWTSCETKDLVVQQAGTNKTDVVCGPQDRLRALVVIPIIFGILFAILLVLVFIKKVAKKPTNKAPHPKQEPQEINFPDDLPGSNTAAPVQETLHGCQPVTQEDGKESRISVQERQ

B1: Murine anti-His scFv (scFv)
scFv: DILMTQTPSSLPVSLGDQASISCRSSQSIVHSNGNTYLEWYLQKPGQSPKLLIYKVSNRFSGVPDRFSGSGSGTDFTLKISRVEAEDLGVYYCFQGSHVPFTFGSGTKLEIKRGGGGSGGGGSGGGGSGGGGSQVQLQQSGPEDVKPGASVKISCKASGYTFTDYYMNWVKQSPGKGLEWIGDINPNNGGTSYNQKFKGRATLTVDKSSSTAYMELRSLTSEDSSVYYCESQSGAYWGQGTTVTVSA
notes: also called anti-His (3D5M) scFv
In general, Kd refers to the free concentration of one partner at which half of the binding sites on the other are occupied at equilibrium, for simple one-to-one binding. Lower therefore signals higher affinity. Usually koff stands for a measure of how fast the partners let go of each other. Low values mean slow dissociation, high ones fast dissociation. Broadly, the kon is a measure of how fast the partners come together. The low end stands for slow association, the high end for fast association. For B1, in assay [1], the Kd is 36.6 nM, the koff was determined as 0.00547 s⁻¹ and the kon turned out to be 149000 M⁻¹ s⁻¹.

B2: 2B1-Ck-L2-Myc (scFv)
scFv: QAALTQPSSVSANPGETVKITCSGGDSYAGSYYYGWFQQKAPGSAPVTVIYYNDKRPSDIPSRFSGSTSGSTSTLTITGVQAEDEAVYYCGSIDTSSGTGIFGAGTTLTVLGQSSRSSGGGGSSGGGGSAVTLDESGGGLQTPGGALSLVCKGSGFTFSSYQMFWVRQAPGKGLEYVAEISGSGLSTWYAPAVKGRATISRDNGQSTVRLQLNNLRAEDTGTYYCAKAAGSCGVGTCAGGIVDGIDAWGHGTEVIVSSTSGQAGQRTVAAPSVFIFPPSDEQLKSGTASVVCLLNNFYPREAKVQWKVDNALQSGNSQESVTEQDSKDSTYSLSSTLTLSKADYEKHKVYACEVTHQGLSSPVTKSFNRGESGGGGSGGGSEQKLISEEDL
Consider B2, for which the MFI in assay [2] is 2070.

B3: 2B1-L1-Myc-Ck (scFv)
scFv: QAALTQPSSVSANPGETVKITCSGGDSYAGSYYYGWFQQKAPGSAPVTVIYYNDKRPSDIPSRFSGSTSGSTSTLTITGVQAEDEAVYYCGSIDTSSGTGIFGAGTTLTVLGQSSRSSGGGGSSGGGGSAVTLDESGGGLQTPGGALSLVCKGSGFTFSSYQMFWVRQAPGKGLEYVAEISGSGLSTWYAPAVKGRATISRDNGQSTVRLQLNNLRAEDTGTYYCAKAAGSCGVGTCAGGIVDGIDAWGHGTEVIVSSTSGQAGQGGGGSEQKLISEEDLRTVAAPSVFIFPPSDEQLKSGTASVVCLLNNFYPREAKVQWKVDNALQSGNSQESVTEQDSKDSTYSLSSTLTLSKADYEKHKVYACEVTHQGLSLPVTKSFNRGES
In the case of B3, the MFI in assay [2] amounted to 2400.

B4: 2B1-Ck-L1-Myc (scFv)
scFv: QAALTQPSSVSANPGETVKITCSGGDSYAGSYYYGWFQQKAPGSAPVTVIYYNDKRPSDIPSRFSGSTSGSTSTLTITGVQAEDEAVYYCGSIDTSSGTGIFGAGTTLTVLGQSSRSSGGGGSSGGGGSAVTLDESGGGLQTPGGALSLVCKGSGFTFSSYQMFWVRQAPGKGLEYVAEISGSGLSTWYAPAVKGRATISRDNGQSTVRLQLNNLRAEDTGTYYCAKAAGSCGVGTCAGGIVDGIDAWGHGTEVIVSSTSGQAGQRTVAAPSVFIFPPSDEQLKSGTASVVCLLNNFYPREAKVQWKVDNALQSGNSQESVTEQDSKDSTYSLSSTLTLSKADYEKHKVYACEVTHQGLSSPVTKSFNRGESGGGGSEQKLISEEDL
Take B4: the MFI in assay [2] turned out to be 1520.

B5: 2B1-Cκ-Myc (2B1-Cκ linked with C-terminal Myc peptide) (scFv)
scFv: QAALTQPSSVSANPGETVKITCSGGDSYAGSYYYGWFQQKAPGSAPVTVIYYNDKRPSDIPSRFSGSTSGSTSTLTITGVQAEDEAVYYCGSIDTSSGTGIFGAGTTLTVLGQSSRSSGGGGSSGGGGSAVTLDESGGGLQTPGGALSLVCKGSGFTFSSYQMFWVRQAPGKGLEYVAEISGSGLSTWYAPAVKGRATISRDNGQSTVRLQLNNLRAEDTGTYYCAKAAGSCGVGTCAGGIVDGIDAWGHGTEVIVSSTSGQAGQRTVAAPSVFIFPPSDEQLKSGTASVVCLLNNFYPREAKVQWKVDNALQSGNSQESVTEQDSKDSTYSLSSTLTLSKADYEKHKVYACEVTHQGLSSPVTKSFNRGESEQKLISEEDL
notes: also called 2B1-Ck-Myc; Myc peptide-tagged anti-hCD40 adaptor
B5 gave an MFI in assay [2] of 1860.
